Each block holds one binder with its values, some of them ahead of it.
How the values were obtained:
[1] = molecular target: T1, neddylated CUL3 (endogenous) (human (endogenous in K562, 293T), UniProt Q13618;Q15843, NEDD8-modified | linked to the cullin); test: co-IP; biotinylated Fab on streptavidin magnetic beads, K562 lysates (cells treated with DMSO, MLN4924 or CSN5i-3; N8-block), 45 min at 4 °C, immunoblotting; details: one partner purified
T1 construct: CUL3, human; NEDD8, human, the conjugated form; also called NEDD8-linked CUL3; source: endogenous, K562 lysate; endogenous, 293T lysate

[2] = molecular target: T2, neddylated CUL2 (endogenous) (human (endogenous in 293T), UniProt Q13617;Q15843, NEDD8-modified | linked to the cullin); test: affinity purification with mass spectrometry; IPs with biotinylated N8C_Fab3b on streptavidin beads from lysates of human cells (293T, K562, panel of ten lines), N8-block; cells treated with DMSO, MLN4924, CSN5i-3, Indisulam, MZ1, ferric ammonium citrate or TNF (with MG132 and CB-5083 before stimuli); DIA MS; details: one partner purified
T2 construct: CUL2, human; NEDD8, human, the conjugated form; also called NEDD8-linked CUL2; source: endogenous, 293T lysate

[3] = molecular target: T3, neddylated CUL1 C-terminal region bound to RBX1 (Homo sapiens, UniProt Q13616;P62877;Q15843, L421E | V451E | V452K | Y455K, NEDD8 linked to a specific site in the WHB subdomain | C-terminus linked to the cullin (isopeptide)); test: ELISA; proteins (2 µg/ml) coated on 384-well MaxiSorp plates overnight at 4 °C; Fab titrated (Fig. 1c at 50 nM Fab); detected with anti-M13-HRP (phage) or anti-Kappa-HRP (protein); EC50 by nonlinear regression; the results call the Fabs phage-displayed, the methods give EC50 for purified Fab proteins; details: both partners purified
T3 construct: CUL1, human, C-terminal region residues 411-776 with solubilizing substitutions; RBX1, human; NEDD8, human, the conjugated form; also called neddylated CUL1–RBX1; source: neddylated in vitro; not shown: MBP, N-terminal, cleaved; GST, N-terminal, cleaved; copies: + +

[4] = molecular target: T4, purified recombinant CUL3 modified by NEDD8 (band on the immunoblot) (Homo sapiens, UniProt Q13618;Q15843, NEDD8 linked to a specific site in the WHB subdomain | C-terminus linked to the cullin (isopeptide)); test: far-Western, overlay or dot blot; 200 ng neddylated or unneddylated recombinant CUL1-5 after SDS-PAGE on PVDF; 2 µg/ml biotinylated Fab as primary binder, Streptavidin-HRP; details: both partners purified
T4 construct: CUL3, human; NEDD8, human, the conjugated form; Resolved by SDS-PAGE, so RBX1 is not in the band; also called neddylated CUL3–RBX1; source: recombinant, purified, neddylated in vitro; not shown: GST, N-terminal, cleaved
T4 sequence (Q13618 whole entry, chain 1 of 2): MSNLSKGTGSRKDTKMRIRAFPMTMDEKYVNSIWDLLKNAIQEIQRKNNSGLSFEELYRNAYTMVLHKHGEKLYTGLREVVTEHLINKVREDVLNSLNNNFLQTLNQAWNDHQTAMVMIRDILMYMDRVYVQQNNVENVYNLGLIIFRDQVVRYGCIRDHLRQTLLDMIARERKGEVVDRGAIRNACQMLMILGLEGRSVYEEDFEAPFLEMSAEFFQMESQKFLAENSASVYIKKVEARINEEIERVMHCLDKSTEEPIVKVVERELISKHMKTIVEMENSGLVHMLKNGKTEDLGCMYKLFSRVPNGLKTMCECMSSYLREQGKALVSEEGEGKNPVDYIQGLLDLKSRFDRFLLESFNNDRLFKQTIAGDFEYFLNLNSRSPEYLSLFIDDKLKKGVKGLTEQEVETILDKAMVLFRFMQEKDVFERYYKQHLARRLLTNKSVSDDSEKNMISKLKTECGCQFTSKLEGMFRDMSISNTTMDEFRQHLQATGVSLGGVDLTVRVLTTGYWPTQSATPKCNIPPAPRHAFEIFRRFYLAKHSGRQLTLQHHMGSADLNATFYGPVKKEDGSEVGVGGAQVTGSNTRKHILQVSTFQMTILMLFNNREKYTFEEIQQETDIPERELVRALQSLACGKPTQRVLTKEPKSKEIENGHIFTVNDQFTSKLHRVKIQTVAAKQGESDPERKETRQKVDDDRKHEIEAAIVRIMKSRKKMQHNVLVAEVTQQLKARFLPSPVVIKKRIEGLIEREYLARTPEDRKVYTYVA
T4 sequence (Q15843 1-76, chain 2 of 2): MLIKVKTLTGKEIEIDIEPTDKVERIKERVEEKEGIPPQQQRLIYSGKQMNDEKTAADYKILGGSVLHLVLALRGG

T1 sequence (Q13618 whole entry, chain 1 of 2): as the sequence (Q13618 whole entry, chain 1 of 2) above
T1 sequence (Q15843 1-76, chain 2 of 2): as the sequence (Q15843 1-76, chain 2 of 2) above
T3 sequence (Q13616 411-776 L421E/V451E/V452K/Y455K, chain 1 of 3): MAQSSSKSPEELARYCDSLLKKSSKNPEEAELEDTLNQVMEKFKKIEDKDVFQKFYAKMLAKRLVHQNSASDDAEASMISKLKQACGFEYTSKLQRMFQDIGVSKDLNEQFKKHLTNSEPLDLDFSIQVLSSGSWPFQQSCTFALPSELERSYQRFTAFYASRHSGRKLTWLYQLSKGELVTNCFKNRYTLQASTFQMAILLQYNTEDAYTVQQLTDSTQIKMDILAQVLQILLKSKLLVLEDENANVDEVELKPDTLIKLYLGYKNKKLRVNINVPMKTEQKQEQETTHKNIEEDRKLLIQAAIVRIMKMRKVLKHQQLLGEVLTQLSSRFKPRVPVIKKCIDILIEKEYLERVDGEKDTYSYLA
T3 sequence (P62877 whole entry, chain 2 of 3, the tested form may be a part): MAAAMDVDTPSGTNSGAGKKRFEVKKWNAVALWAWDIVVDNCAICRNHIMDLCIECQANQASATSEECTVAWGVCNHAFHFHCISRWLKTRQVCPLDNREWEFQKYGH
T3 sequence (Q15843 1-76, chain 3 of 3): as the sequence (Q15843 1-76, chain 2 of 2) above
T2 sequence (Q13617 whole entry, chain 1 of 2): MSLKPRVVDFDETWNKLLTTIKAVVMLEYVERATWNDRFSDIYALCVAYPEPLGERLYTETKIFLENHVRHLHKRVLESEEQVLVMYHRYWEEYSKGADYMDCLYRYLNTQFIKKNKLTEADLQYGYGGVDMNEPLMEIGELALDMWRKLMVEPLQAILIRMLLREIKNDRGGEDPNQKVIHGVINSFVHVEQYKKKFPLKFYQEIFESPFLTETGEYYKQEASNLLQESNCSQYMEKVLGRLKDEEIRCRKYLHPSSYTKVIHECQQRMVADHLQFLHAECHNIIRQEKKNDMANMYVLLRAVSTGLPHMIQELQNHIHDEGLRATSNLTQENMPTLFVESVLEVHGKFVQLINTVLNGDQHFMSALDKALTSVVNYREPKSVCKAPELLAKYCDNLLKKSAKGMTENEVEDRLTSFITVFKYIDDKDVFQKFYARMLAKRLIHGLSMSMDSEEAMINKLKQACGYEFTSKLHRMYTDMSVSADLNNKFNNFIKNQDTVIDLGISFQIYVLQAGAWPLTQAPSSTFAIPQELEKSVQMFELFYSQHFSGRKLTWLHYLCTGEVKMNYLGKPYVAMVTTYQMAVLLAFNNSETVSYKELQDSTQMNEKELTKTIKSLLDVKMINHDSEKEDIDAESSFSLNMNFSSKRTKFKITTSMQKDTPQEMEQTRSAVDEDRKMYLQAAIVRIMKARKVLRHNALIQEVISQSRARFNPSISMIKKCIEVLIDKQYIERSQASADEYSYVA
T2 sequence (Q15843 1-76, chain 2 of 2): as the sequence (Q15843 1-76, chain 2 of 2) above

binding result [1]: binds | binding result [2]: binds
B1: N8C_Fab3b, biotinylated (Fab, V domains shown)
VH: EVQLVESGGGLVQPGGSLRLSCAASGFNFSSSSIHWVRQAPGKGLEWVASISSSYGYTYYADSVKGRFTISADTSKNTAYLQMNSLRAEDTAVYYCARDPFGWAAHGVGLDYWGQGTLVTVSS
VL: DIQMTQSPSSLSASVGDRVTITCRASQSVSSAVAWYQQKPGKAPKLLIYSASSLYSGVPSRFSGSRSGTDFTLTISSLQPEDFATYYCQQSSYSLITFGQGTKVEIK
notes: as the heavy chain of m5; as the light chain of m5; GS linker between the heavy chain and the AviTag-His6 tag; Held on streptavidin beads in the IPs; source: E. coli Rosetta (DE3), purified, biotinylated in vitro with BirA; not shown: AviTag, C-terminal, kept

fold higher EC50 than N8C_Fab1b [3]: ~3 fold
B2: N8C_Fab4a (Fab, V domains shown)
VH: EVQLVESGGGLVQPGGSLRLSCAASGFNLSYYSMHWVRQAPGKGLEWVASISPYYSYTYYADSVKGRFTISADTSKNTAYLQMNSLRAEDTAVYYCARSHWASYYAGAFDYWGQGTLVTVSS
VL: DIQMTQSPSSLSASVGDRVTITCRASQSVSSAVAWYQQKPGKAPKLLIYSASSLYSGVPSRFSGSRSGTDFTLTISSLQPEDFATYYCQQGYAFWHPITFGQGTKVEIK

binding result [4]: binds | binding result [1]: binds
B3: N8C_Fab4a, biotinylated (Fab, V domains shown)
VH: B2 VH
VL: B2 VL
notes: as the heavy chain of m6; as the light chain of m6; GS linker between the heavy chain and the AviTag-His6 tag; source: E. coli Rosetta (DE3), purified, biotinylated in vitro with BirA; not shown: AviTag, C-terminal, kept
